Measurements from patent publication US20180312587A1 (ADURO BIOTECH HOLDINGS EUROPE B V, published 2018).
Numbering of substitutions follows the chain as printed. Numbers in names are those of the source. Read-outs that look alike come from different tables or passages of the source. Each block holds one binder with its values, some of them ahead of it.

Columns and labels:
hSIRPαV1(P74A) [1] = target: T1, hSIRPαV1(P74A) (human, UniProt P78324 31-504); test: CELISA, CHO-K1 transfectants
T1 construct: also called P74A variant of hSIRPαV1
T1 sequence (P78324 31-504 P74A limits assumed): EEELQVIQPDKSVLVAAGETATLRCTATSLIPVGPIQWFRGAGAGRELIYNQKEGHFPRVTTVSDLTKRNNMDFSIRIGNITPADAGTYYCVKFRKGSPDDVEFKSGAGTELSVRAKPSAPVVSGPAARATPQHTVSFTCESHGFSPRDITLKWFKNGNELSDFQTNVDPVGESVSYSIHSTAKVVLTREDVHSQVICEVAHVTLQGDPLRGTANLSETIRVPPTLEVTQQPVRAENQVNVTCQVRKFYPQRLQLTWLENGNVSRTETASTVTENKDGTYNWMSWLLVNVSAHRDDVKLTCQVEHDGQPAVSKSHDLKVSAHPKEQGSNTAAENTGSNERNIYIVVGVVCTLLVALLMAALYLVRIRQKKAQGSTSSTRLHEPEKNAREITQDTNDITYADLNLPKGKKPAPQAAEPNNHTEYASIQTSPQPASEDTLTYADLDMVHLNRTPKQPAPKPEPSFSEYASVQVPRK
Description: (§1) Reactivity was confirmed using CHO-K1 cells (ATCC CCL-61) expressing a cDNA encoding the full length open reading frame of hSIRPαV1, hSIRPαV1(P74A), hSIRPαV2, and hSIRPβ1 subcloned into the pCI-neo vector (Promega, Madison, Wis.). CHO-K1.hSIRPαV1, CHO-K1.hSIRPαV1(P74A), CHO-K1.hSIRPαV2, and CHO-K1.hSIRPβ1 cells were seeded in culture medium (DMEM-F12 (Gibco) supplemented with 5% New Born Calf Serum (BioWest) and Pen/Strep (Gibco)) in 96-well flat-bottom tissue culture plates and incubated at 37° C., 5% CO₂ and 95% humidity for 24 hours. Subsequently, culture medium was removed and cells were incubated for 1 hour at 37° C., 5% CO₂ and 95% humidity with purified hSIRPα antibodies (used at 10 μg/mL and dilutions thereof). Next, cells were washed with PBS-T and incubated for 1 hour at 37° C., 5% CO₂ and 95% humidity with goat-anti-mouse IgG-HRP (Southern Biotech). Subsequently, cells were washed three times with PBS-T and immunoreactivity against hSIRPαV1, hSIRPαV1(P74A), hSIRPαV2, and hSIRPβ1 was visualized with TMB Stabilized Chromogen (Invitrogen). Reactions were stopped with 0.5 M H₂SO₄ and absorbances were read at 450 and 610 nm.

human SIRPβ1 [2] = target: T2, human SIRPβ1 (human, UniProt O00241 30-398); test: CELISA, CHO-K1 transfectants
T2 construct: also called hSIRPβ1
T2 sequence (O00241 30-398 limits assumed): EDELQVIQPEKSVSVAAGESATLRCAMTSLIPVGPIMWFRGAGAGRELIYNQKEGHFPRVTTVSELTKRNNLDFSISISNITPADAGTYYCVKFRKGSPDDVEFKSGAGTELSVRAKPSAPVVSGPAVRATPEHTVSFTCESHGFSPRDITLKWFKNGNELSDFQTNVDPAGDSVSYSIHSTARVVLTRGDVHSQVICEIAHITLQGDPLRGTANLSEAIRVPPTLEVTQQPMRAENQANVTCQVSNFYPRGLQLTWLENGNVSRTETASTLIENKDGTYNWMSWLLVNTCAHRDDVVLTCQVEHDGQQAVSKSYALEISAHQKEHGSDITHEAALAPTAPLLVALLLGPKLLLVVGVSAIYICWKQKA
Description: as §1

human SIRPα variant 1 [3] = target: T3, human SIRPα variant 1 (human, UniProt P78324 31-504); test: CELISA, CHO-K1 transfectants
T3 construct: full length ORF on transfected CHO-K1 or HEK293 cells; entry includes the signal peptide; also called hSIRPαV1; SIRPαV1
T3 sequence (P78324 31-504 limits assumed, change not shown): as the sequence (P78324 31-504 P74A limits assumed) above, with A44P counted along it
Description: as §1

human SIRPγ [4] = target: T4, human SIRPγ (human, UniProt Q9P1W8 29-387); test: flow cytometry, Jurkat E6.1 cells; nd = not detected
T4 construct: on transfected CHO-K1 cells; also called hSIRPγ
T4 sequence (Q9P1W8 29-387 limits assumed): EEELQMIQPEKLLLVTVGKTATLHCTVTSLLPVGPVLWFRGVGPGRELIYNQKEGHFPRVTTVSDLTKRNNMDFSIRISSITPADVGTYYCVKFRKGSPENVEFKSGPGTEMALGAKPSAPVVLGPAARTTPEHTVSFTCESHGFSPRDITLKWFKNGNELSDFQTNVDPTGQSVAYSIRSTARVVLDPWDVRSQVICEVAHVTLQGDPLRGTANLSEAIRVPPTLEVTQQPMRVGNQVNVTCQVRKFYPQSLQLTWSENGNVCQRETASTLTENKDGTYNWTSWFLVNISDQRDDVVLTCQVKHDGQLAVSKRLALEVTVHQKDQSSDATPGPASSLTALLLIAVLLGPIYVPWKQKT
Description: Binding to hSIRPγ was assessed by flow cytometry using the Jurkat E6.1 T cell leukemia cell line (ECACC 88042803). Jurkat cells were seeded in 96-well round bottomed tissue culture plates and incubated for 40 minutes with the anti-hSIRPα antibodies (20 μg/mL and dilutions thereof) in PBS/1% BSA at 4° C. […] After this labeling procedure, cells were washed two times, resuspended in PBS/1% BSA, containing 0.1 μg/mL DAPI (BioLegend), and analysed by flow cytometry on the FACSVerse (BD Biosciences). Data were processed and analysed with FlowJo V10 software (FlowJo, LLC).

hSIRPαV1(P74A) [5] = target: T1, hSIRPαV1(P74A); test: CELISA, CHO-K1 transfectants; remark: listed apart in the source
Description: (§2) The specificity of monoclonal anti-hSIRPα antibodies (e.g., including the hSIRPα antibodies known in the art, KWAR23 ([…]. Patent CA2939293 A1), 18D5 (Patent WO2017/178653 A2), and various commercially available hSIRPα antibodies) for binding to hSIRPαV1, hSIRPαV1(P74A), and hSIRPβ1 was evaluated by CELISA. Reactivity was confirmed using CHO-K1 cells (ATCC CCL-61) expressing a cDNA encoding the full length open reading frame of hSIRPαV1, hSIRPαV1(P74A), and hSIRPβ1 subcloned into the pCI-neo vector (Promega, Madison, Wis.). CHO-K1.hSIRPαV1, CHO-K1.hSIRPαV1(P74A), and CHO-K1.hSIRPβ1 cells were seeded in culture medium (DMEM-F12 (Gibco) supplemented with 5% New Born Calf Serum (BioWest) and Pen/Strep (Gibco)) in 96-well flat-bottom tissue culture plates and incubated at 37° C., 5% CO₂ and 95% humidity for 24 hours. Subsequently, culture medium was removed and cells were incubated for 1 hour at 37° C., 5% CO₂ and 95% humidity with purified hSIRPα antibodies (used at 10 μg/ml and dilutions thereof). Next, cells were washed with PBS-T and incubated for 1 hour at 37° C., 5% CO₂ and 95% humidity with either goat-anti-mouse IgG-HRP (Southern Biotech), goat-anti-human IgG-HRP (Jackson Immuno Research), or goat-anti-rabbit IgG-HRP (Southern Biotech). Subsequently, cells were washed three times with PBS-T and immunoreactivity against hSIRPαV1, hSIRPαV1(P74A), and hSIRPβ1 was visualized with TMB Stabilized Chromogen (Invitrogen). Reactions were stopped with 0.5 M H₂SO₄ and absorbances were read at 450 and 610 nm.

human SIRPβ1 [6] = target: T2, human SIRPβ1; test: CELISA, CHO-K1 transfectants; remark: listed apart in the source
Description: as §2

human SIRPα variant 1 [7] = target: T3, human SIRPα variant 1; test: CELISA, CHO-K1 transfectants; remark: listed apart in the source
Description: as §2

human SIRPα variant 2 [8] = target: T5, human SIRPα variant 2 (human, UniProt P78324 31-504); test: CELISA, CHO-K1 transfectants; nd = not detected
T5 construct: full length ORF on transfected CHO-K1 cells; also called hSIRPαV2; SIRPαV2
T5 sequence (P78324 other isoform, or with tags, fused parts or gaps mutant limits assumed): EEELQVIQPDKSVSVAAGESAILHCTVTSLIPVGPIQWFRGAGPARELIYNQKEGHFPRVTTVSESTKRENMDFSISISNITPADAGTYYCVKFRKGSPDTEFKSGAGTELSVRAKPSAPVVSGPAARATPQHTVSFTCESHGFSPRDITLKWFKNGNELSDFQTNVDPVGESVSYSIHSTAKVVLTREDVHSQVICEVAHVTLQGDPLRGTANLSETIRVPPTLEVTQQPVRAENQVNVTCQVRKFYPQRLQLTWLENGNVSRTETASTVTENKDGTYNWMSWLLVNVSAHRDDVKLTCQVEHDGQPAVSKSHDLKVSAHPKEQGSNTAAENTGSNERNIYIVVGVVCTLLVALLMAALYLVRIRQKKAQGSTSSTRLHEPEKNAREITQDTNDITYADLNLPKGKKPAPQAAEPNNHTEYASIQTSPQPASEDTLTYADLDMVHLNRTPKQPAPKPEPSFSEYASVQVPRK
Description: as §1

human SIRPα variant 1 [9] = target: T3, human SIRPα variant 1; test: flow cytometry, blockade of DyLight488-hCD47/Fc binding to U-937 cells
Description: hCD47 blockade for the KWAR23, clone 18D5, and hSIRPα.40A antibodies was assessed by flow cytometry. For this purpose, THP-1 (ATCC TIB-202) and U-937 (ATCC CRL-1593.2) monocyte cell lines were used as the source of hSIRPα in the assay. THP-1 and U-937 cells were seeded in 96-well round bottomed tissue culture plates and incubated for 45 minutes with FcR Blocking Reagent (Miltenyi Biotec) and indicated anti-hSIRPα antibodies (20 μg/mL and dilutions thereof) in PBS/1% BSA at 4° C. […] After this labeling procedure, cells were washed two times, resuspended in PBS/1% BSA containing 0.1 μg/mL DAPI (BioLegend), and analysed by flow cytometry on the FACSVerse (BD Biosciences). Data were processed and analysed with FlowJo V10 software (FlowJo, LLC) and plotted using GraphPad Prism 6 (GraphPad Software, Inc.). Binding of recombinant hCD47 fused to an Fc domain of human IgG1 was monitored in the presence of increasing amounts of the anti-hSIRPα antibodies. […] IC50 values represent the concentration at which half of the inhibition is observed.

human SIRPβ1 [10] = target: T2, human SIRPβ1; test: CELISA, CHO-K1 transfectants; nd = not detected
Description: (§3) Binding of the humanized antibodies to hSIRPα was studied in CELISA format. Binding of the hSIRPα antibodies to human SIRPαV1, SIRPαV2, hSIRPβ1, and hSIRPγ was confirmed using CHO-K1 cells that had been transiently transfected with cDNA encoding the full length open reading frame of each of these respective targets subcloned into the pCI-neo vector. CHO-K1.hSIRPαV1, CHO-K1.hSIRPαV2, CHO-K1.hSIRPβ1, and CHO-K1.hSIRPγ cells were seeded in culture medium (DMEM-F12 (Gibco) supplemented with 5% New Born Calf Serum (BioWest) and Pen/Strep (Gibco)) in 96-well flat-bottom tissue culture plates and incubated at 37° C., 5% CO₂ and 95% humidity until cell layers were confluent. Subsequently, culture medium was removed and cells were incubated for 1 hour at 37° C., 5% CO₂ and 95% humidity with purified hSIRPα antibodies (10 μg/mL and dilutions thereof). Next, cells were washed with PBS-T and incubated for 1 hour at 37° C., 5% CO₂ and 95% humidity with goat-anti-human IgG-HRP conjugate (Jackson Immuno Research) or goat-anti-mouse IgG-HRP (Southern Biotech). Subsequently, cells were washed three times with PBS-T and anti-hSIRPα immunoreactivity was visualized with TMB Stabilized Chromogen (Invitrogen). Reactions were stopped with 0.5 M H₂SO₄ and absorbances were read at 450 and 610 nm. […] In Table 13 the EC50 values of the humanized hSIRPα antibodies are depicted.
(§4) Table 13: Binding of humanized and parental hSIRPα.50A antibodies to CHO-K1.hSIRPαV1, CHO-K1.hSIRPαV2, CHO-K1.hSIRPβ1, and CHO-K1.hSIRPγ cells.

human SIRPα variant 1 [11] = target: T3, human SIRPα variant 1; test: CELISA, CHO-K1 transfectants; average of two experiments
Description: as §3, §4

human SIRPα variant 2 [12] = target: T5, human SIRPα variant 2; test: as above
Description: as §3, §4

human SIRPγ [13] = target: T4, human SIRPγ; test: CELISA, CHO-K1 transfectants; extrapolated
Description: as §3, §4

- EC50 (human SIRPα variant 1 [11]): 0.878 nM
- EC50 (human SIRPα variant 2 [12]): 0.868 nM
- EC50 (human SIRPγ [13]): 1.2 nM
B4: hSIRPα.50A.H3L5 (antibody, human IgG4 S228P, kappa, V domains shown)
VH: EVQLVQSGAEVVKPGASVMISCKASGFTFTNYYIHWVRQRPGQGLEWIGWIYPGNVNTKYNEKFKARVIMTADKSTSTVYMQLSSLTSEDTAVYYCARPTIIATDFDVWGQGTLVTVSS
VL: DIVLTQSPSFLSASVGDRVTITCKASQGVGTAVGWYQQKPGKSPKLLIYWASTRHTGVPDRFSGSGSGTEFTLTISNLQPEDFAAYYCQQYSTYPFTFGGGTKLEIKR
notes: human IgG4 S228P, kappa; also called hSIRPα.50H3L5
- binding result (human SIRPβ1 [10]): no binding (tested: 10 µg/mL and dilutions thereof)

- EC50 (human SIRPα variant 1 [11]): 1.2 nM
- EC50 (human SIRPα variant 2 [12]): 1.24 nM
- EC50 (human SIRPγ [13]): 1.98 nM
B5: hSIRPα.50A.H4L4 (antibody, human IgG4 S228P, kappa, V domains shown)
VH: EVQLQQSGAELVKPGASVKVSCKASGFTFTNYYIHWVRQRPGQGLEWMGWIYPGNVNTKYNEKFKAKATITADKSTSTAYMELSSLTSEDTAVYYCARPTIIATDFDVWGQGTTVTVSS
VL: B4 VL with V3Q, L4M, F10S, Q38K, S43V, E70D, S76N, N77G, F83V, A85T
notes: human IgG4 S228P, kappa; also called hSIRPα.50H4L4
- binding result (human SIRPβ1 [10]): no binding (tested: 10 µg/mL and dilutions thereof)

- EC50 (human SIRPα variant 1 [11]): 0.701 nM
- EC50 (human SIRPα variant 2 [12]): 0.661 nM
- EC50 (human SIRPγ [13]): 0.808 nM
B6: hSIRPα.50A.H4L5 (antibody, human IgG4 S228P, kappa, V domains shown)
VH: B5 VH
VL: B4 VL
notes: human IgG4 S228P, kappa; also called hSIRPα.50H4L5
- binding result (human SIRPβ1 [10]): no binding (tested: 10 µg/mL and dilutions thereof)

- EC50 (human SIRPα variant 1 [11]): 0.683 nM
- EC50 (human SIRPα variant 2 [12]): 0.681 nM
- EC50 (human SIRPγ [13]): 0.95 nM
B7: hSIRPα.50A.H4L1 (antibody, human IgG4 S228P, kappa, V domains shown)
VH: B5 VH
VL: B4 VL with S43A, N77S
notes: human IgG4 S228P, kappa; also called hSIRPα.50H4L1
- binding result (human SIRPβ1 [10]): no binding (tested: 10 µg/mL and dilutions thereof)

The next lines start with the binder.

B1: 18D5 (antibody, V domains shown)
VH: QVQLQQPGAELVRPGSSVKLSCKASGYTFTSYWVHWVKQRPIQGLEWIGNIDPSDSDTHYNQKFKDKASLTVDKSSSTAYMQLSSLTFEDSAVYYCVRGGTGTMAWFAYWGQGTLVTVSA
VL: DVVMTQTPLSLPVSLGDQASISCRSSQSLVHSYGNTYLYWYLQKPGQSPKLLIYRVSNRFSGVPDRFSGSGSGTDFTLKISRVEAEDLGVYFCFQGTHVPYTFGSGTKLEIK
notes: from WO2017/178653; also called clone 18D5
- EC50 (hSIRPαV1(P74A) [1]): 0.055 nM
- EC50 (human SIRPβ1 [2]): 0.055 nM
- EC50 (human SIRPα variant 1 [3]): 0.134 nM
- binding result (human SIRPγ [4]): no binding (tested: 20 µg/mL and dilutions thereof)
- EC50 (hSIRPαV1(P74A) [5]): 0.073 nM
- EC50 (human SIRPβ1 [6]): 0.064 nM
- EC50 (human SIRPα variant 1 [7]): 0.128 nM
- binding result (human SIRPα variant 2 [8]): no binding (tested: 10 µg/mL and dilutions thereof)
- IC50 (human SIRPα variant 1 [9]): 1.52 nM

B2: hSIRPα.50A.H3L4 (antibody, human IgG4 S228P, kappa, V domains shown)
VH: B4 VH
VL: B4 VL with V3Q, L4M, F10S, Q38K, S43V, E70D, S76N, N77G, F83V, A85T
notes: human IgG4 S228P, kappa; also called hSIRPα.50H3L4
- binding result (human SIRPβ1 [10]): no binding (tested: 10 µg/mL and dilutions thereof)
- EC50 (human SIRPα variant 1 [11]): 1.26 nM
- EC50 (human SIRPα variant 2 [12]): 1.52 nM
- EC50 (human SIRPγ [13]): 5.17 nM

B3: hSIRPα.50A.H5L4 (antibody, human IgG4 S228P, kappa, V domains shown)
VH: EVQLVQSGAEVVKPGASVKVSCKASGFTFTNYYIHWVRQAPEQGLEWIGWIYPGNVNTKYNEKFKARVTMTADKSTSTAYMELSSLRSDDMAVYYCARPTIIATDFDVWGQGTTVTVSS
VL: B4 VL with V3Q, L4M, F10S, Q38K, S43V, E70D, S76N, N77G, F83V, A85T
notes: human IgG4 S228P, kappa; also called hSIRPα.50H5L4
- binding result (human SIRPβ1 [10]): no binding (tested: 10 µg/mL and dilutions thereof)
- EC50 (human SIRPα variant 1 [11]): 1.17 nM
- EC50 (human SIRPα variant 2 [12]): 1.11 nM
- EC50 (human SIRPγ [13]): 4.03 nM
